In general, Kd refers to the constant that tells how readily two partners part at equilibrium. Broadly, the koff is a measure of how fast the partners let go of each other. The term kon denotes a measure of how fast the partners come together. One may read the IC50 as the point on the concentration scale where inhibition reaches its midpoint.

Several values for one entry are separate records, joined by “and”; a condition that tells them apart may be missing. Equal entries are not always repeated. Where two headings read alike, the source gives them in different places. Where only a bound is given, the exact number is not on record here.

Assay [1] addresses T1, recombinant human IL-17A (human, UniProt Q16552 24-155). As to the kind of experiment: cell-based or functional assay.
In assay [2] the target is T1, recombinant human IL-17A. As to the kind of experiment: SPR (BIAcore T200), IL-17A coupled to CM5 chip, single-cycle kinetics.
Assay [3] deals with T1, recombinant human IL-17A. Kind of assay: competition ELISA, IL-17A binding to coated IL-17RA-Fc. On the technique in general: An ELISA detects its analyte on a solid surface through an enzyme-linked reagent.
The target in assay [4] is T1, recombinant human IL-17A. Kind of assay: SPR (BIAcore T200), IL-17A coupled to CM5 chip, single-cycle kinetics. This is another data set of the same source. In general terms: Surface plasmon resonance follows binding to a sensor surface in real time, without labels.
A further assay addresses T2, IL-17F (UniProt Q96PD4 31-163, limits assumed).
T2 sequence (looked up): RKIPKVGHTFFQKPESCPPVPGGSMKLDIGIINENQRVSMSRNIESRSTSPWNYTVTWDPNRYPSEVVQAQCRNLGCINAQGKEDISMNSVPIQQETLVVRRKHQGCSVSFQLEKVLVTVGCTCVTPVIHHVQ
As to the kind of experiment: specificity ELISA on coated antigen, VH concentration not given.

A further assay addresses T3, IL-17C (UniProt Q9P0M4 19-197, limits assumed).
T3 sequence (looked up): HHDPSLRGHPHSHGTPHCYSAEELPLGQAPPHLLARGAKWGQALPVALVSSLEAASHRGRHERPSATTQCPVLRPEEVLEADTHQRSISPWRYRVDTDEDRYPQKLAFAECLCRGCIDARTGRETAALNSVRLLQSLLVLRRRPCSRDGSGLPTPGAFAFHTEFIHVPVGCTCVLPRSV
The assay is described as above.

In a further assay the target is T4, recombinant IL-17RA-Fc (UniProt Q96F46 33-320).
T4 construct: Bought reagent; also called R & D systems cat #177-IR-100; receptor; not shown: Fc part of the bought fusion, not described
The assay is described as above.

In the next assay the target is T5, murine IL-17A (murine, UniProt Q62386 26-158, limits assumed).
T5 sequence (looked up): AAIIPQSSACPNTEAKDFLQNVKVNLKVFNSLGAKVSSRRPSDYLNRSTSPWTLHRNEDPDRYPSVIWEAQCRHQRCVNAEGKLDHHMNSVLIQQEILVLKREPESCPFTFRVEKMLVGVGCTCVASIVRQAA
The assay is described as above.

For assay [5], the target named is T1, recombinant human IL-17A. As to the kind of experiment: BIAcore single-cycle kinetics on immobilised IL-17A, 1:1 binding fit.
Assay [6] addresses T1, recombinant human IL-17A. As to the kind of experiment: cell-based or functional assay. The source holds these as a separate data set.
The target of assay [7] is T1, recombinant human IL-17A. As to the kind of experiment: SPR (BIAcore).
For assay [8], the target named is T1, recombinant human IL-17A. As to the kind of experiment: BIAcore single-cycle kinetics on immobilised IL-17A, 1:1 binding fit. This is another data set of the same source.
Assay [9] concerns the target T1, recombinant human IL-17A. As to the kind of experiment: VH screening as in examples 7 and 8.
The target in another assay is T6, IL17E.
T6 construct: also called IL-25
T6 chain: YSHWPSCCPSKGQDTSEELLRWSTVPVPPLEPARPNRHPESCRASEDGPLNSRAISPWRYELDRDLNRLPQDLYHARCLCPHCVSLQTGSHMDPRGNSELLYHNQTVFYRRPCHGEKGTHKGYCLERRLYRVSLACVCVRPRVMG
As to the kind of experiment: specificity ELISA on coated antigen, VH concentration not given.

The target in assay [10] is T1, recombinant human IL-17A. Kind of assay: competition ELISA, IL-17A binding to coated IL-17RA-Fc; FIG. 9A.

T1 sequence (Q16552 24-155): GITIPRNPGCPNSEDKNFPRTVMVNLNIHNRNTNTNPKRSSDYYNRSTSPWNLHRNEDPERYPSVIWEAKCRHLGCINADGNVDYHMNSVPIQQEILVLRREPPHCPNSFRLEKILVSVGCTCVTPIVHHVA

B1: Family 2 (clone 2.1) (VHH)
VHH: QVQLVESGGGLVQPGGSLRLSCAASGFTFSSYGMGWVRQAPGKGLEWVAKIKQDGSEKDYVDSVKGRFTISRDNAKKSLFLQMNSLRAEDTAVYYCARESIFGIPEDWGQGTLVTVSS
notes: Human single VH domain; also called VH 2.1.1
As to B1, in the assay with recombinant human IL-17A [1], the “Cell assay IC50 (nM), IL-17A-induced IL6 release from HT1080” value (“Cell assay IC50 (nM)” below) was 8.3 nM. For the same molecule, in the assay with recombinant human IL-17A [2], the Kd worked out at 2 nM, the koff stood at 0.00247 s⁻¹ and the association rate constant (kon) is 1.22e+06 M⁻¹ s⁻¹. The IC50 in the assay with recombinant human IL-17A [3] was 32 nM.

B2: Family 4 (clone 4.1) (VHH)
VHH: QVQLVESGGGLVQPGGSLRLSCAASGFTFSSYWMNWVRQAPGKGLEWVATIKQDGSEKYYVDSVKGRFTISRDNATNSLFLQMNSLRAEDTAVYYCARGDTIFDGAFDIWGQGTMVTVSS
notes: Human single VH domain
Consider B2, for which, in the assay with recombinant human IL-17A [2], the Kd turned out to be 493 nM, the koff worked out at 0.00289 s⁻¹ and the association rate constant (kon) is 5860 M⁻¹ s⁻¹. The half-inhibitory concentration (IC50) with recombinant human IL-17A [3] was 3140 nM.

B3: Family 5 (clone 5.1) (VHH)
VHH: EVQLVESGGGLVQPGGSLRLSCAASGFTFSSYWMSWVRQAPGKGLEWVANIKQDGSEKYYVDSVKGRFTISRDNAKNSLYLQMNSLRAEDTAVYYCAHGQWPFFDYWGQGTMVTVSS
notes: Human single VH domain
As for B3, in the assay with recombinant human IL-17A [2], the Kd was found to be 166 nM, the koff amounted to 0.0505 s⁻¹ and the kon turned out to be 304000 M⁻¹ s⁻¹. In the assay with recombinant human IL-17A [3], the IC50 turned out to be 337 nM.

B4: VH 1.3.1 (clone 1.3 expressed from phagemid vector: with linker residues and His tag) (VHH)
VHH: EVQLVESGGGLVQPGGSLRLSCAASGFTFSSYSMYWVRQAPGKGLEWVAEIKQDGSVQYYVDSVKGRFTISRDNAKNSLYLQMNSLRAEDTAVYYCAKGEILPLYFDYWGQGTLVTVSS
notes: Human single VH domain; also called Clone 1.3 prep 1; Clone 1.3 prep 2
As for B4, the Kd with recombinant human IL-17A [4] was 0.627 nM and 0.23 nM. Further, the koff with recombinant human IL-17A [4] was 0.000501 s⁻¹ and 0.000222 s⁻¹. Further, the kon with recombinant human IL-17A [4] was 799000 M⁻¹ s⁻¹ and 964000 M⁻¹ s⁻¹. In addition, the binding result with IL-17F was “no binding”; in the assay with IL-17C, “no binding”; with recombinant IL-17RA-Fc, “no binding”; with murine IL-17A it was “binds”.

B5: VH 1.3.3 (clone 1.3 with C terminal extension) (VHH)
VHH: EVQLVESGGGLVQPGGSLRLSCAASGFTFSSYSMYWVRQAPGKGLEWVAEIKQDGSVQYYVDSVKGRFTISRDNAKNSLYLQMNSLRAEDTAVYYCAKGEILPLYFDYWGQGTLVTVSS
notes: Human single VH domain
As to B5, in the assay with recombinant human IL-17A [5], the Kd amounted to 0.68 nM and the kon came out at 750000 M⁻¹ s⁻¹.

B6: Clone 1.15 (VHH)
VHH: EVQLVESGGGLVQPGGSLRLSCAASGFTFSSYSMYWVRQAPGKGLEWVAEIRQDGSEQYYVDSVKGRFTISRDNAKNSLYLQMNSLRAEDTAVYYCAKGEILPLYFDYWGQGTLVTVSS
notes: Human single VH domain
As for B6, in the assay with recombinant human IL-17A [6], the “Cell assay IC50 (nM)” value was 2.5 nM. In the assay with recombinant human IL-17A [4], the dissociation constant Kd stood at 0.232 nM. In the assay with recombinant human IL-17A [4], the koff was determined as 0.000242 s⁻¹. For the same molecule, the kon with recombinant human IL-17A [4] was 1.04e+06 M⁻¹ s⁻¹. The binding result is reported as “no binding” in the assay with IL-17F, “no binding” in the assay with IL-17C, “no binding” with recombinant IL-17RA-Fc and “binds” with murine IL-17A.

B7: VH 1.3.2 (clone 1.3 with C terminal extension and His tag) (VHH)
VHH: EVQLVESGGGLVQPGGSLRLSCAASGFTFSSYSMYWVRQAPGKGLEWVAEIKQDGSVQYYVDSVKGRFTISRDNAKNSLYLQMNSLRAEDTAVYYCAKGEILPLYFDYWGQGTLVTVSS
notes: Human single VH domain
With B7, the Kd with recombinant human IL-17A [7] was determined as 0.63 nM. Moreover, in the assay with recombinant human IL-17A [5], the koff is 0.000501 s⁻¹ and the kon amounted to 799000 M⁻¹ s⁻¹.

B8: VH 1.10.1 (clone 1.10 expressed from phagemid vector: with linker residues and His tag) (VHH)
VHH: EVQLVESGGGLVQPGGSLRLSCAASGFTFSSYRMYWVRQAPGKGLEWVASIEQDGSEEYYVDSVKGRFTISRDNAKKSLFLQMNSLRAEDTAVYYCAKGEILPLYFDYWGQGTLVTVSS
notes: Human single VH domain
For the molecule B8, the “Cell assay IC50 (nM)” value with recombinant human IL-17A [6] came to 1.9 nM. Also, the Kd with recombinant human IL-17A [4] is 1.46 nM; with recombinant human IL-17A [7] it was 1 nM. Further, the values for the koff with recombinant human IL-17A [4] and in the assay with recombinant human IL-17A [8] were 0.000966 s⁻¹ and 0.000755 s⁻¹, respectively. Moreover, the kon was determined as 664000 M⁻¹ s⁻¹ in the assay with recombinant human IL-17A [4] and 700000 M⁻¹ s⁻¹ in the assay with recombinant human IL-17A [8]. The binding result in the assay with IL-17F was “no binding”; with IL-17C, “no binding”; in the assay with recombinant IL-17RA-Fc it was “no binding”; in the assay with murine IL-17A, “binds”; with IL17E, “no binding”. For the same molecule, the “fold improved affinity over clone 1.1” value in the assay with recombinant human IL-17A [9] is ≤ 10 fold. Also, in the assay with recombinant human IL-17A [10], the IC50 was 4 nM.

B9: VH 1.19.1 (clone 1.19 expressed from phagemid vector: with linker residues and His tag) (VHH)
VHH: EVQLVESGGGLVQPGGSLRLSCATSGFTFSSYGMYWVRQAPGKGLEWVAEIKQDGSEKYYVDSVKGRFTISRDNAKNSLYLQMNSLRAEDTAVYYCAKGEILPLYFDYWGQGTLVTVSS
notes: Human single VH domain
As for B9, in the assay with recombinant human IL-17A [6], the “Cell assay IC50 (nM)” value amounted to 1.2 nM. In addition, the Kd with recombinant human IL-17A [4] was 0.215 nM. The koff in the assay with recombinant human IL-17A [4] turned out to be 0.000153 s⁻¹. Also, the kon in the assay with recombinant human IL-17A [4] was 714000 M⁻¹ s⁻¹. Moreover, the binding result with IL-17F is reported as “no binding”; in the assay with IL-17C, “no binding”; in the assay with recombinant IL-17RA-Fc, “no binding”; in the assay with murine IL-17A it was “binds”.

B10: VH 1.7.1 (clone 1.7 expressed from phagemid vector: with linker residues and His tag) (VHH)
VHH: QVQLVESGGGLVQPGGSLRLSCAASGFTFSSYGMYWVRQAPGKGLEWVAKIEQDGSEEYYVDSVKGRFTISRDNAKKSLYLQMNSLRAEDTAVYYCAKGEILPLYFDYWGQGTLVTVSS
notes: Human single VH domain
As to B10, the “Cell assay IC50 (nM)” value in the assay with recombinant human IL-17A [6] came out at 2 nM. In addition, in the assay with recombinant human IL-17A [4], the Kd was 0.609 nM, the koff came out at 0.000466 s⁻¹ and the kon turned out to be 765000 M⁻¹ s⁻¹. The “fold improved affinity over clone 1.1” value with recombinant human IL-17A [9] was ≤ 10 fold. Further, the IC50 in the assay with recombinant human IL-17A [10] is 7 nM.

B11: VH 1.20.1 (clone 1.20 expressed from phagemid vector: with linker residues and His tag) (VHH)
VHH: EVQLVESGGGLVQPGGSLRLSCAASGFTFSSYGMYWVRQAPGKGLEWVAKIEQDGSEEYYADSVKGRFTISRDNAKKSLYLQMNSLRAEDTAVYYCAKGEILPLYFDYWGQGTLVTVSS
notes: Human single VH domain
B11: the “Cell assay IC50 (nM)” value with recombinant human IL-17A [6] turned out to be 2.03 nM. Besides, in the assay with recombinant human IL-17A [4], the Kd is 0.244 nM. In the assay with recombinant human IL-17A [4], the koff was 0.000208 s⁻¹. The kon with recombinant human IL-17A [4] was 851000 M⁻¹ s⁻¹. Besides, the binding result was “no binding” with IL-17F, “no binding” with IL-17C, “no binding” with recombinant IL-17RA-Fc and “binds” in the assay with murine IL-17A.

B12: VH 1.16.1 (clone 1.16 expressed from phagemid vector: with linker residues and His tag) (VHH)
VHH: EVQLVESGGGLVQPGGSLRLSCAASGFTFSSYSMYWVRQAPGKGLEWVAEIKQDGSEQYYVDSVKGRFTISRDNAKNSLYLQMNGLRAEDTAVYYCAKGEILPLYFDYWGQGTLVTVSS
notes: Human single VH domain
Regarding B12, the “Cell assay IC50 (nM)” value with recombinant human IL-17A [6] worked out at 1.4 nM. In the assay with recombinant human IL-17A [4], the Kd is 0.216 nM, the koff came out at 0.000213 s⁻¹ and the kon stood at 986000 M⁻¹ s⁻¹. Also, the binding result with IL-17F is “no binding”. Also, the binding result in the assay with IL-17C is “no binding”. Besides, the binding result with recombinant IL-17RA-Fc is given as “no binding”.

These data come from patent publication US20200347127A1 (CRESCENDO BIOLOGICS, published 2020).
